Source: the supplement of paper PMC12764529
± gives the half width of the 95% confidence interval.

Legend:
[1] = folding stability dG unfold (combined trypsin and chymotrypsin); higher = more stable
Method in brief: (§1)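 Only designs with AlphaFold2 dimer inter-PAE above 15 were retained; each was a mini-protein under 80 residues with no cysteine, in a PA-tagged cDNA display construct. After digestion with trypsin and chymotrypsin and sequencing, K50 was inferred by Bayesian fitting of counts, and unfolding free energy was derived per protease or combined against a sequence-predicted unfolded-state K50 and a shared folded-state K50.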

[2] = folding stability dG unfold from chymotrypsin proteolysis; higher = more stable
Method in brief: as §1

[3] = folding stability dG unfold from trypsin proteolysis; higher = more stable
Method in brief: as §1

## SADSVPIKLTFTFEVPEEIYEAAVKAIEDIFKDLGLEVEFEAKAEPGEEGVKVTVELNLTIPPNNPNLISAG [r14_76_TrMRF]
[1]
  folding stability dG unfold: 3.07 ± 0.16 kcal/mol
[2]
  folding stability dG unfold: 3.31 ± 0.096 kcal/mol
[3]
  folding stability dG unfold: 2.44 ± 0.2 kcal/mol

## SAGSSMLDSLTVDTEVTLDPAKGTVLVKTTTTLPDGTVTRTVTTVTVEPLNPPPPPPPRFDPRTGEALESAG [r5_816_JUSTAS]
[1]
  folding stability dG unfold: 0.549 ± 0.14 kcal/mol
[2]
  folding stability dG unfold: 0.207 ± 0.15 kcal/mol
[3]
  folding stability dG unfold: 0.79 ± 0.082 kcal/mol

## SAGGSAGGSAKKKKYKVKIKVINENGEIYEIDEIYFDEKTKKIYIKIKNKDGEEKVFEIELDSAGGSAGGSA [r18_370_TrROS_Hall]
[1]
  folding stability dG unfold: 3.25 ± 0.13 kcal/mol
[2]
  folding stability dG unfold: 3.74 ± 0.051 kcal/mol
[3]
  folding stability dG unfold: 2.4 ± 0.059 kcal/mol

## SKGTFRAVLPLETLKELIERFKSKGYRIEVKPLSIKPFEVPGIREDGTPELFPVVEVEAEIEIYPPEDPASA [r9_991_TrMRF]
[1]
  folding stability dG unfold: 1.82 ± 0.066 kcal/mol
[2]
  folding stability dG unfold: 1.9 ± 0.063 kcal/mol
[3]
  folding stability dG unfold: 1.671 ± 0.015 kcal/mol

## SAGGSAGGSAGGDWKMIEFYIPIEPDEPITIEIPDGVRIQIWRVDGYYKVTIMIPLEDISAGGSAGGSAGGS [r10_355_TrROS]
[1]
  folding stability dG unfold: 3.17 ± 0.18 kcal/mol
[2]
  folding stability dG unfold: 3.71 ± 0.083 kcal/mol
[3]
  folding stability dG unfold: 2.42 ± 0.14 kcal/mol

## SAGGSAGGSAGGLPEDIELEVEPLEITLEDGSRVRILIARAPDPEIAAIDIEVFPPDDPKSAGGSAGGSAGG [r11_338_TrMRF]
[1]
  folding stability dG unfold: 0.559 ± 0.13 kcal/mol
[2]
  folding stability dG unfold: 0.51 ± 0.071 kcal/mol
[3]
  folding stability dG unfold: 0.417 ± 0.11 kcal/mol

## SAGKIEITVKPDGTVIIKVTVEVDGKKLELTIEVPPEMTIEEIIEKLKELAEELGVEKVEVEIVPLPPSAGG [r19_31_TrROS_Hall]
[1]
  folding stability dG unfold: > 6 kcal/mol
[2]
  folding stability dG unfold: 2.9 ± 0.45 kcal/mol
[3]
  folding stability dG unfold: 3.9 ± 0.85 kcal/mol

## SAGGSAGGSAGGSAGVIVSLSPAPPSADTVVELPKGVTVTVTTVNGERVLTTLVPEALLSAGGSAGGSAGGS [r10_355_JUSTAS]
[1]
  folding stability dG unfold: 0.217 ± 0.048 kcal/mol
[2]
  folding stability dG unfold: 0.00971 ± 0.032 kcal/mol
[3]
  folding stability dG unfold: 0.365 ± 0.013 kcal/mol

## SAGGSVRVETEFERLPDGPIVVRVRITLPNGETLEFTAVYYPEPSGIPMFVPEPVPPNAIEGIDIKVSAGGS [r16_95_TrMRF]
[1]
  folding stability dG unfold: 2.11 ± 0.16 kcal/mol
[2]
  folding stability dG unfold: 1.78 ± 0.047 kcal/mol
[3]
  folding stability dG unfold: 2.55 ± 0.09 kcal/mol

## SASKGSSMITVELTVTVPPSVSIEEVKKQFEEEFPKDAEIKVEATPVTVPANGTPVTTIKVTVTITKKESAG [r14_633_JUSTAS]
[1]
  folding stability dG unfold: 1.56 ± 0.13 kcal/mol
[2]
  folding stability dG unfold: 1.71 ± 0.11 kcal/mol
[3]
  folding stability dG unfold: 1.27 ± 0.1 kcal/mol

## SAGGSAAIPLEFELPNGERVTVYYDPETGLFTVEVEVRFGNEKGEPPEVRFRFEVDSLVDLLDFLASAGGSA [r15_31_TrMRF]
[1]
  folding stability dG unfold: 3.49 ± 0.093 kcal/mol
[2]
  folding stability dG unfold: 3.88 ± 0.039 kcal/mol
[3]
  folding stability dG unfold: 2.51 ± 0.13 kcal/mol

## SAGGSAGGSAGGKKIRFYFPNGNPVELTEILDVDPEDKWARIDVEHNGKKHKHPMPADDLSAGGSAGGSAGG [r7_236_TrROS]
[1]
  folding stability dG unfold: < -1 kcal/mol
[2]
  folding stability dG unfold: -1.19 ± 0.39 kcal/mol
[3]
  folding stability dG unfold: -1.36 ± 0.68 kcal/mol

## SAGGSAKLTAEEIKKLPPNARIYFDKETGRVFIEVDGKLVVIEIDKETKEVKVVKVFPSKEALEKASAGGSA [r15_6_TrROS_Hall]
[1]
  folding stability dG unfold: 1.82 ± 0.12 kcal/mol
[2]
  folding stability dG unfold: 1.86 ± 0.1 kcal/mol
[3]
  folding stability dG unfold: 1.57 ± 0.054 kcal/mol

## SAGGSAGGSAGGEEVTIVVKSKEDIEALLPPGWKVTKIEEIYVDKETGEKYYKITVKKESAGGSAGGSAGGS [r10_256_TrROS_Hall]
[1]
  folding stability dG unfold: 4.06 ± 0.12 kcal/mol
[2]
  folding stability dG unfold: 3.88 ± 0.062 kcal/mol
[3]
  folding stability dG unfold: 4.23 ± 0.17 kcal/mol

## SAGGSAPPIEIEIDKWERDPENGYVYATVKIKLPGKKIEIPIWMDDPPGQAENQVKMLAENIARQLSAGGSA [r15_979_TrROS]
[1]
  folding stability dG unfold: 1.11 ± 0.13 kcal/mol
[2]
  folding stability dG unfold: 1.39 ± 0.11 kcal/mol
[3]
  folding stability dG unfold: 0.807 ± 0.082 kcal/mol

## SAGGMTKTVTVTIEIDVPPGVTVDELIEKLKELAEKLGLTVKVTSVTVEEVDGKLVVTVEVEIEPPEPSAGG [r13_351_TrROS_Hall]
[1]
  folding stability dG unfold: 2.5 ± 0.31 kcal/mol
[2]
  folding stability dG unfold: 2.6 ± 0.18 kcal/mol
[3]
  folding stability dG unfold: 2.58 ± 0.25 kcal/mol

## SAGGMVTITLPEVNVEDPEVAEARMEEIAARLRAAGVTVTSASYDPEKGLATITVSAGGLSAAEVLASAGGS [r8_344_JUSTAS]
[1]
  folding stability dG unfold: 2.47 ± 0.037 kcal/mol
[2]
  folding stability dG unfold: 2.455 ± 0.015 kcal/mol
[3]
  folding stability dG unfold: 2.48 ± 0.042 kcal/mol

## SAGGSPLLVLHIRLRRPGEEREIVIPSDLIEDMPLEEIEEILRALPWIDEAEIELEEFPPLRPDELSAGGSA [r2_282_TrMRF]
[1]
  folding stability dG unfold: 1.67 ± 0.089 kcal/mol
[2]
  folding stability dG unfold: 1.98 ± 0.11 kcal/mol
[3]
  folding stability dG unfold: 1.21 ± 0.026 kcal/mol

## SADVVVIHARSPEELRAALEEARKEGKTVRIVVSREELDELKALLPEDVKIEVLKNENGEELVVIEVKVSAG [r14_127_TrROS_Hall]
[1]
  folding stability dG unfold: 4.15 ± 0.43 kcal/mol
[2]
  folding stability dG unfold: 3.11 ± 0.28 kcal/mol
[3]
  folding stability dG unfold: 4.32 ± 0.23 kcal/mol

## SAGGSAGGSADGNTPVEVTITLTDPKTGAVTTVPVVLPTSVSVEEVAAELAAKFGLTTVTVTSAGGSAGGSA [r18_58_JUSTAS]
[1]
  folding stability dG unfold: 0.864 ± 0.037 kcal/mol
[2]
  folding stability dG unfold: 0.521 ± 0.04 kcal/mol
[3]
  folding stability dG unfold: 1.06 ± 0.027 kcal/mol

## SAGGSAGGSMPTSSSSSLSSEAEVEALIEELKKKGAKEFTVDPGPGALTLTITYDDSTLTISSSAGGSAGGS [r12_846_JUSTAS]
[1]
  folding stability dG unfold: 1.12 ± 0.11 kcal/mol
[2]
  folding stability dG unfold: 1.38 ± 0.057 kcal/mol
[3]
  folding stability dG unfold: 0.838 ± 0.033 kcal/mol

## SAGGSMSTSTLVRREIASVDPETGLRVVRVEVEEVDYGFDPKTGTVLGVSPVSPVSESVLLLPADAPPESAG [r5_903_JUSTAS]
[1]
  folding stability dG unfold: -0.286 ± 0.23 kcal/mol
[2]
  folding stability dG unfold: -0.175 ± 0.22 kcal/mol
[3]
  folding stability dG unfold: -0.652 ± 0.23 kcal/mol

## SAGMTSVLTLEEVSPEELRAKIDEALATLPEGTIFVLPSEELAEVVKELHPGVPVVVRDEATGRLTEVGSAG [r5_391_JUSTAS]
[1]
  folding stability dG unfold: 1.5 ± 0.086 kcal/mol
[2]
  folding stability dG unfold: 1.67 ± 0.1 kcal/mol
[3]
  folding stability dG unfold: 1.17 ± 0.041 kcal/mol

## SAGGSAGGAERIKNLLEDYGFELKDVEMDEPGSTKIHITPDNPSLRKDIKDKLPPGNVDSITDTSAGGSAGG [r6_84_TrROS]
[1]
  folding stability dG unfold: 0.882 ± 0.26 kcal/mol
[2]
  folding stability dG unfold: 1.33 ± 0.12 kcal/mol
[3]
  folding stability dG unfold: -0.0811 ± 0.14 kcal/mol

## SAGGKYTFTPAPPNSESEVVKKAEELKKKLAEEPGVDKKIEIEIKPSPDGSLTIKVTFSTGTYDAAASAGGS [r16_356_JUSTAS]
[1]
  folding stability dG unfold: 0.942 ± 0.12 kcal/mol
[2]
  folding stability dG unfold: 1.32 ± 0.094 kcal/mol
[3]
  folding stability dG unfold: 0.514 ± 0.027 kcal/mol

## SAGGSAGGSAGKKKKKPKKKYVFIVIKINLSEEELKKLAEELGIDKVFKNENGYAVLVVKSAGGSAGGSAGG [r11_64_TrROS_Hall]
[1]
  folding stability dG unfold: 3.15 ± 0.13 kcal/mol
[2]
  folding stability dG unfold: 3.56 ± 0.059 kcal/mol
[3]
  folding stability dG unfold: 2.19 ± 0.12 kcal/mol

## SAGGSAGGSMKYTLLSTRKNPDGTELRLIEVSEDPEKAKEYLESQGAVEIEFKKNIMTVTFKSSAGGSAGGS [r20_222_JUSTAS]
[1]
  folding stability dG unfold: -0.214 ± 0.17 kcal/mol
[2]
  folding stability dG unfold: -0.321 ± 0.32 kcal/mol
[3]
  folding stability dG unfold: -0.216 ± 0.22 kcal/mol

## SAGGEVRLRLEAELLPDGTLVLRGRVEVRVGDRVFEFEFELVLRLEPVPPPPAPARPLLIPERLLDASAGGS [r8_269_TrMRF]
[1]
  folding stability dG unfold: 2.13 ± 0.12 kcal/mol
[2]
  folding stability dG unfold: 2.4 ± 0.065 kcal/mol
[3]
  folding stability dG unfold: 1.47 ± 0.098 kcal/mol

## SAGGSAGGSAKMVIVNITLKNKDGKEFTISIEADPSVIKNIIKKLFNAKINKIEIYPLSEALSAGGSAGGSA [r18_107_TrMRF]
[1]
  folding stability dG unfold: 2.28 ± 0.15 kcal/mol
[2]
  folding stability dG unfold: 2.21 ± 0.08 kcal/mol
[3]
  folding stability dG unfold: 2.49 ± 0.11 kcal/mol

## SAGGSAGGPVVISVPALVKLAKELGLKLVFFPETKTVILEHPDSFLIATIDSKGNVSIAPALPESAGGSAGG [r6_155_TrMRF]
[1]
  folding stability dG unfold: 2.64 ± 0.091 kcal/mol
[2]
  folding stability dG unfold: 2.59 ± 0.049 kcal/mol
[3]
  folding stability dG unfold: 2.69 ± 0.09 kcal/mol

## SAGGSAGGSVPLELELTFKLENGSFIVVKAKIEFNPETPEFKVEVLSVEIFLEPEGKIVSDEDFSAGGSAGG [r6_864_TrMRF]
[1]
  folding stability dG unfold: 2.44 ± 0.29 kcal/mol
[2]
  folding stability dG unfold: 3.08 ± 0.085 kcal/mol
[3]
  folding stability dG unfold: 1.43 ± 0.087 kcal/mol
